Measured values from US20230203178A1 (SICHUAN KELUN BIOTECH BIOPHARMACEUTICAL, published 2023).

What was measured:
human BCMA (antigen) = molecular target: T1, human BCMA (antigen) (human, UniProt Q02223 1-54, limits assumed); assay: flow cytometry of lentivirus-transduced T cells labelled with antigen, 48 h after transduction; percent positive cells
T1 construct: Antigen coupled to the CM5 chip in SPR; also called B-cell maturation antigen; TNFRF17
T1 sequence (looked up): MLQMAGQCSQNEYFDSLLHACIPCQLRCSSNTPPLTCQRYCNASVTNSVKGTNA
From the text: (§1) The nucleic acid sequence encoding the CAR was expressed under the drive of a promoter, therefore the lentivirus-transfected T cells could be labeled with an antigen or anti-CD19 antibody and measured by flow cytometry, to reflect the expression level of the CAR on the surface of the T cells.

[1] = molecular target: T2, BCMA expressed on target cells (CHO-K1-BCMA recombinant cell line; MM.1S; RPMI8226) (human, UniProt Q02223 1-184); assay: cell-based or functional assay
T2 sequence (looked up): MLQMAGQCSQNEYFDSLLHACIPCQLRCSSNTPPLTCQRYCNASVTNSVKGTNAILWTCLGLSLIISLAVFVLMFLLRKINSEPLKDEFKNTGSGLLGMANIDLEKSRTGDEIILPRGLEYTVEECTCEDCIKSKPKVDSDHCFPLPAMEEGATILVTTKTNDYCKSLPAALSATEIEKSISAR

human CD19 (antigen) = molecular target: T3, human CD19 (antigen) (human, UniProt P15391 20-291, limits assumed); assay: flow cytometry of lentivirus-transduced T cells labelled with antigen or anti-CD19 antibody, 48 h after transduction; percent positive cells
T3 sequence (looked up): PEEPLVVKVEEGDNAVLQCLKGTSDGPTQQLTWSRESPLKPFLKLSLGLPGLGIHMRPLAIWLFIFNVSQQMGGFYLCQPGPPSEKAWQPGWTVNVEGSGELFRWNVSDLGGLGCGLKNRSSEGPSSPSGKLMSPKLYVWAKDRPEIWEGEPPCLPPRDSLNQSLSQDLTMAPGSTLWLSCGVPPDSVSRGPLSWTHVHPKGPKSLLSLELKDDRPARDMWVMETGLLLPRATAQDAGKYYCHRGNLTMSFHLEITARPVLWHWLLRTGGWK
From the text: as §1

[2] = molecular target: T4, CD19 expressed on Nalm6 cells (UniProt P15391 20-556, limits assumed); assay: cell-based or functional assay
T4 sequence (looked up): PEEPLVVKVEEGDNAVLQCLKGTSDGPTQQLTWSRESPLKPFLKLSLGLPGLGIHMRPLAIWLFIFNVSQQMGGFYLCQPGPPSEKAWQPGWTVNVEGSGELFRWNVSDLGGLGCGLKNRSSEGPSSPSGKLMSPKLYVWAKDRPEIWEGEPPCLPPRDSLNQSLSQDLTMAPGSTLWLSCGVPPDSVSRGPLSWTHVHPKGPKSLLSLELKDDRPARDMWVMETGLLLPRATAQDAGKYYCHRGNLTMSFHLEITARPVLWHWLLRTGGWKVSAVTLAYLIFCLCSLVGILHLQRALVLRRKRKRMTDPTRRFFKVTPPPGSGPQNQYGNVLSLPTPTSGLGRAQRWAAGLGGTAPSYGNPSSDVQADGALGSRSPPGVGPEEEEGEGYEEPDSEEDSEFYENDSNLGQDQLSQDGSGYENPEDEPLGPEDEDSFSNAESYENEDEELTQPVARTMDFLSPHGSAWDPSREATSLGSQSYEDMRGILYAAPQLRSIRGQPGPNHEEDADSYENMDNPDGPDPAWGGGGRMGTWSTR

| Binder | Positive rate of binding to BCMA (human BCMA (antigen)) | lysis rate of CHO-K1-BCMA-luc cells by CAR-T cells, ratio 0.25:1 [1] | lysis rate of CHO-K1-BCMA-luc cells by CAR-T cells, ratio 0.5:1 [1] | lysis rate of CHO-K1-BCMA-luc cells by CAR-T cells, ratio 1:1 [1] | lysis rate of CHO-K1-BCMA-luc cells by CAR-T cells, ratio 2:1 [1] | Positive rate of binding to CD19 (human CD19 (antigen)) | lysis rate of Nalm6-luc cells by CAR-T cells, ratio 0.25:1 [2] | lysis rate of Nalm6-luc cells by CAR-T cells, ratio 0.5:1 [2] | lysis rate of Nalm6-luc cells by CAR-T cells, ratio 1:1 [2] | lysis rate of Nalm6-luc cells by CAR-T cells, ratio 2:1 [2] |
| --- | --- | --- | --- | --- | --- | --- | --- | --- | --- | --- |
| H-BCMA CAR (other, Chimeric antigen receptor on human T cells; built here from its parts without the signal peptide; also called H-BCMA CAR-T; BCMA CAR-T) DIVMTQSPLSLPVTPGEPASISCRSSQSLVHSNGNTFLHWYLQKPGQSPQLLIYKVSNRFSGVPDRFSGSGSGTDFTLKISRVEAEDVGVYYCMQSTHVLTFGGGTKLEIKRAGGGGSGGGGSGGGGSQVQLVQSGAEVKKPGASVKVSCKASGYTFTDYLMHWVRQAPGQGLEWMGWINTETGEPTYADDFKGRVTMTRDTSTSTVYMELSSLRSEDTAVYYCAPSLYYGYSWFTYWGQGTLVTVSTTTPAPRPPTPAPTIASQPLSLRPEACRPAAGGAVHTRGLDFACDIYIWAPLAGTCGVLLLSLVITLYCKRGRKKLLYIFKQPFMRPVQTTQEEDGCSCRFPEEEEGGCELRVKFSRSADAPAYKQGQNQLYNELNLGRREEYDVLDKRRGRDPEMGGKPRRKNPQEGLYNELQKDKMAEAYSEIGMKGERRRGKGHDGLYQGLSTATKDTYDALHMQALPPR | 26.9% | 0% | 27% | 40.7% | 77.9% | 0.31% | – | – | – | – |
| TanCAR 01 (other, Tandem bispecific chimeric antigen receptor on human T cells; built here from its parts without the signal peptide; also called TanCAR 01 CAR-T) DIVMTQSPLSLPVTPGEPASISCRSSQSLVHSNGNTFLHWYLQKPGQSPQLLIYKVSNRFSGVPDRFSGSGSGTDFTLKISRVEAEDVGVYYCMQSTHVLTFGGGTKLEIKRAGGGGSGGGGSGGGGSQVQLVQSGAEVKKPGASVKVSCKASGYTFTDYLMHWVRQAPGQGLEWMGWINTETGEPTYADDFKGRVTMTRDTSTSTVYMELSSLRSEDTAVYYCAPSLYYGYSWFTYWGQGTLVTVSGGGGSGGGGSGGGGSGGGGSQVTLRESGPALVKPTQTLTLTCTFSGVSLPDYGVSWIRQPPGKALEWLAVIWGSETTYYNSALKSRLTISKDTSKNQVVLTMTNMDPVDTATYYCAKHYYYGGSYAMDYWGQGTTVTVSSGGGGSGGGGSGGGGSEIVLTQSPATLSLSPGERATLSCRASQDISKYLNWYQQKPGQAPRLLIYHTSRLHSGIPDRFSGSGSGTDFTLTISRLEPEDIAVYYCQQGNTLPYTFGQGTKLEITTTPAPRPPTPAPTIASQPLSLRPEACRPAAGGAVHTRGLDFACDIYIWAPLAGTCGVLLLSLVITLYCKRGRKKLLYIFKQPFMRPVQTTQEEDGCSCRFPEEEEGGCELRVKFSRSADAPAYKQGQNQLYNELNLGRREEYDVLDKRRGRDPEMGGKPRRKNPQEGLYNELQKDKMAEAYSEIGMKGERRRGKGHDGLYQGLSTATKDTYDALHMQALPPR | 11.3% | 31.3% | 34.3% | 63.2% | 71% | 10.6% | 46.1% | 40% | 56.8% | 80.6% |
| H-CD19 CAR (other, Chimeric antigen receptor on human T cells; built here from its parts without the signal peptide; also called H-CD19 CAR-T; hCD19 CAR-T) QVTLRESGPALVKPTQTLTLTCTFSGVSLPDYGVSWIRQPPGKALEWLAVIWGSETTYYNSALKSRLTISKDTSKNQVVLTMTNMDPVDTATYYCAKHYYYGGSYAMDYWGQGTTVTVSSGGGGSGGGGSGGGGSEIVLTQSPATLSLSPGERATLSCRASQDISKYLNWYQQKPGQAPRLLIYHTSRLHSGIPDRFSGSGSGTDFTLTISRLEPEDIAVYYCQQGNTLPYTFGQGTKLEITTTPAPRPPTPAPTIASQPLSLRPEACRPAAGGAVHTRGLDFACDIYIWAPLAGTCGVLLLSLVITLYCKRGRKKLLYIFKQPFMRPVQTTQEEDGCSCRFPEEEEGGCELRVKFSRSADAPAYKQGQNQLYNELNLGRREEYDVLDKRRGRDPEMGGKPRRKNPQEGLYNELQKDKMAEAYSEIGMKGERRRGKGHDGLYQGLSTATKDTYDALHMQALPPR | 0.98% | – | – | – | – | 14.7% | 48% | 55% | 72.8% | 86.4% |
| TanCAR 03 (other, Tandem bispecific chimeric antigen receptor on human T cells; built here from its parts without the signal peptide; also called TanCAR 03 CAR-T) QVTLRESGPALVKPTQTLTLTCTFSGVSLPDYGVSWIRQPPGKALEWLAVIWGSETTYYNSALKSRLTISKDTSKNQVVLTMTNMDPVDTATYYCAKHYYYGGSYAMDYWGQGTTVTVSSGGGGSGGGGSGGGGSEIVLTQSPATLSLSPGERATLSCRASQDISKYLNWYQQKPGQAPRLLIYHTSRLHSGIPDRFSGSGSGTDFTLTISRLEPEDIAVYYCQQGNTLPYTFGQGTKLEIGGGGSGGGGSGGGGSGGGGSDIVMTQSPLSLPVTPGEPASISCRSSQSLVHSNGNTFLHWYLQKPGQSPQLLIYKVSNRFSGVPDRFSGSGSGTDFTLKISRVEAEDVGVYYCMQSTHVLTFGGGTKLEIKRAGGGGSGGGGSGGGGSQVQLVQSGAEVKKPGASVKVSCKASGYTFTDYLMHWVRQAPGQGLEWMGWINTETGEPTYADDFKGRVTMTRDTSTSTVYMELSSLRSEDTAVYYCAPSLYYGYSWFTYWGQGTLVTVSTTTPAPRPPTPAPTIASQPLSLRPEACRPAAGGAVHTRGLDFACDIYIWAPLAGTCGVLLLSLVITLYCKRGRKKLLYIFKQPFMRPVQTTQEEDGCSCRFPEEEEGGCELRVKFSRSADAPAYKQGQNQLYNELNLGRREEYDVLDKRRGRDPEMGGKPRRKNPQEGLYNELQKDKMAEAYSEIGMKGERRRGKGHDGLYQGLSTATKDTYDALHMQALPPR | 6.07% | 17.8% | 27.6% | 40.5% | 52.1% | 8.99% | 54.3% | 57.7% | 72.1% | 89.1% |
| TanCAR 04 (other, Tandem bispecific chimeric antigen receptor on human T cells; built here from its parts without the signal peptide; also called TanCAR 04 CAR-T) QVTLRESGPALVKPTQTLTLTCTFSGVSLPDYGVSWIRQPPGKALEWLAVIWGSETTYYNSALKSRLTISKDTSKNQVVLTMTNMDPVDTATYYCAKHYYYGGSYAMDYWGQGTTVTVSSGGGGSGGGGSGGGGSEIVLTQSPATLSLSPGERATLSCRASQDISKYLNWYQQKPGQAPRLLIYHTSRLHSGIPDRFSGSGSGTDFTLTISRLEPEDIAVYYCQQGNTLPYTFGQGTKLEIEAAAKEAAAKEAAAKDIVMTQSPLSLPVTPGEPASISCRSSQSLVHSNGNTFLHWYLQKPGQSPQLLIYKVSNRFSGVPDRFSGSGSGTDFTLKISRVEAEDVGVYYCMQSTHVLTFGGGTKLEIKRAGGGGSGGGGSGGGGSQVQLVQSGAEVKKPGASVKVSCKASGYTFTDYLMHWVRQAPGQGLEWMGWINTETGEPTYADDFKGRVTMTRDTSTSTVYMELSSLRSEDTAVYYCAPSLYYGYSWFTYWGQGTLVTVSTTTPAPRPPTPAPTIASQPLSLRPEACRPAAGGAVHTRGLDFACDIYIWAPLAGTCGVLLLSLVITLYCKRGRKKLLYIFKQPFMRPVQTTQEEDGCSCRFPEEEEGGCELRVKFSRSADAPAYKQGQNQLYNELNLGRREEYDVLDKRRGRDPEMGGKPRRKNPQEGLYNELQKDKMAEAYSEIGMKGERRRGKGHDGLYQGLSTATKDTYDALHMQALPPR | 15.9% | 36.4% | 52.6% | 68.9% | 84.1% | 16.1% | 72.7% | 55.8% | 68.9% | 84.1% |
